Test results as given in US20180155451A1 (published 2018).
Substitutions are numbered along the chain they refer to. Where two headings read alike, the source gives them in different places.

How the values were obtained:
Test in all cases: SPR (Biacore), antibody captured on chip, FcgR extracellular domain as analyte
FcgRIa [1] = target: T1, FcgRIa (human, UniProt P12314 16-292)
T1 construct: extracellular domain; Expressed in FreeStyle293 cells and purified; used as analyte in Biacore; also called FcγRIa; FcγRI; not shown: His tag attached to the C terminus

FcgRIIIa F [2] = target: T2, FcgRIIIa F (human, UniProt P08637 17-208)
T2 construct: extracellular domain; also called FcγRIIIa F; not shown: His tag attached to the C terminus

FcgRIIIa V [3] = target: T3, FcgRIIIa V (human, UniProt P08637 17-208)
T3 construct: extracellular domain; also called FcγRIIIa V; not shown: His tag attached to the C terminus

FcgRIIa H = target: T4, FcgRIIa H (human, UniProt P12318 34-217)
T4 construct: extracellular domain; also called FcγRIIa H; FcγRIIa type H; not shown: His tag attached to the C terminus
T4 sequence (looked up): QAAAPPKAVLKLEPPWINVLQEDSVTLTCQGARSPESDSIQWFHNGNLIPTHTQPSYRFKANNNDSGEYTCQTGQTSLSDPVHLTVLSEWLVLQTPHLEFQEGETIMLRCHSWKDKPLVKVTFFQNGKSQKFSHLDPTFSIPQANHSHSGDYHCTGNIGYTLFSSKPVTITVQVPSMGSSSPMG

FcgRIa [4] = target: T1, FcgRIa; remark: listed apart in the source
FcgRIIa R = target: T5, FcgRIIa R (human, UniProt P12318 34-217)
T5 construct: extracellular domain; also called FcγRIIa R; FcγRIIa type R; not shown: His tag attached to the C terminus
T5 sequence (looked up): T4 sequence (looked up) with H134R

FcgRIIIa F [5] = target: T2, FcgRIIIa F; remark: listed apart in the source
FcgRIIb = target: T6, FcgRIIb (human, UniProt P31994 43-217)
T6 construct: extracellular domain; Expressed in FreeStyle293 cells and purified; used as analyte in Biacore; also called FcγRIIb; CD32B; not shown: His tag attached to the C terminus
T6 sequence (looked up): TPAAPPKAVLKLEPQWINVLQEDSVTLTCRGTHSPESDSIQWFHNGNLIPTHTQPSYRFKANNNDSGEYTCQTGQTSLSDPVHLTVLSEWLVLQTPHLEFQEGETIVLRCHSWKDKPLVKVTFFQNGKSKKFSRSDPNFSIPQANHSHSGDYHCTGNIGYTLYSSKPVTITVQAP

FcgRIIIa V [6] = target: T3, FcgRIIIa V; remark: listed apart in the source

T2 sequence (P08637 17-208): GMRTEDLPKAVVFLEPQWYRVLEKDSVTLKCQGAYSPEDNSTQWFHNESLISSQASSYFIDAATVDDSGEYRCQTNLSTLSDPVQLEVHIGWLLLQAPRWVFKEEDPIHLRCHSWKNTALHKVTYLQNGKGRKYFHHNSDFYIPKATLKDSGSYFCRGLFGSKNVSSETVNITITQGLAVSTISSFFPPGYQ
T1 sequence (P12314 16-292): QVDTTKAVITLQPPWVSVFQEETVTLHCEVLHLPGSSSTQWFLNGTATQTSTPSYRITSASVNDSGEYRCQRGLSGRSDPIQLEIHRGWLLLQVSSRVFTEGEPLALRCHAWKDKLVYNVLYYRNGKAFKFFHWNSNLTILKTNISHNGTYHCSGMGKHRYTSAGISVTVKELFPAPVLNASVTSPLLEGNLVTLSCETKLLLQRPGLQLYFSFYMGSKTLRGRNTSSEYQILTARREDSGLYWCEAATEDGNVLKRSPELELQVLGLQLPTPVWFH
T3 sequence (P08637 17-208 F176V limits assumed): as the sequence (P08637 17-208) above, with F160V counted along it

B1: H240-afucosyl_G1d/L73-k0 (antibody, human IgG1, kappa)
heavy: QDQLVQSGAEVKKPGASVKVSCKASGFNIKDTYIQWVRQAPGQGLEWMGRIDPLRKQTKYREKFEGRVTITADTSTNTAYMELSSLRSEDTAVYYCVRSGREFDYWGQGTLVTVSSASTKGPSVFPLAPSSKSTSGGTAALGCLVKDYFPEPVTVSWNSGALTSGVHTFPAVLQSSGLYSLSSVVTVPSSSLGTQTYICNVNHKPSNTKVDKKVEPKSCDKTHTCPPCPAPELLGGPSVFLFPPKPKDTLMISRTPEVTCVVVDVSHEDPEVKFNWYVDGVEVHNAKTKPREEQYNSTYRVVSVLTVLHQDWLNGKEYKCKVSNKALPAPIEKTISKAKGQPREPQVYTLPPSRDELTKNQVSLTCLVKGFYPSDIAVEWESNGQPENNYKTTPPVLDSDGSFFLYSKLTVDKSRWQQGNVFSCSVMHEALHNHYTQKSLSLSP
light: DIQMTQSPSSLSASVGDRVTITCRASQDIHKYIAWYQQKPGQAPRLLIQYTSTLQPGVPSRFSGSGSGTDYTFTISSLQPEDIATYYCLQYEQLRTFGGGTKVEIKRTVAAPSVFIFPPSDEQLKSGTASVVCLLNNFYPREAKVQWKVDNALQSGNSQESVTEQDSKDSTYSLSSTLTLSKADYEKHKVYACEVTHQGLSSPVTKSFNRGEC
modifications: fucose removed from the sugar chain (afucosylated); amino acid sequence same as H240-G1d
notes: Anti-EREG IgG1 obtained by afucosylating H240-G1d/L73-k0; also called afucosylated antibody
Kd (FcgRIa [1]): 0.43 nM
Kd (FcgRIIIa F [2]): 79 nM
Kd (FcgRIIIa V [3]): 6.9 nM
Kd (FcgRIIa H): 780 nM
Kd (FcgRIa [4]): 0.43 nM
Kd (FcgRIIa R): 490 nM
Kd (FcgRIIIa F [5]): 79 nM
Kd (FcgRIIb): 2600 nM
Kd (FcgRIIIa V [6]): 6.9 nM
